Assays:
[1] = molecular target: T1, recombinant human TSLP (glycosylated long form) (human, UniProt Q969D9 29-159); assay: cell-based or functional assay
[2] = molecular target: T1, recombinant human TSLP (glycosylated …); assay: cell-based or functional assay; remark: listed apart in the source

B1: TSLP-0260 (antibody, V domains shown)
VH: QMQLVESGGGVVQPGRSLRLSCAASGFTFRTYGMHWVRQAPGKGLEWVAVIWYDGSNKHYADSVKGRFTISRDNSKNTLYLQMNSLRAEDTAVYYCARAPQWYLVHEAFDIWGQGTMVTVSS
VL: SYVLTQPPSVSVAPGQTARITCGGNNLGSKSVHWYQQKPGQAPVLVVYDDSDRPSWIPERFSGSNSGNTATLTISRGEAGDEADYYCQVWDESSDHVVFGGGTKLTVLG
a-TSLP TARC bioassay (fold change to TSLP-0001) [1]: 3.4 fold | TARC bioassay (IC50, pM) [2]: 6.65 pM
